# From the supplement of paper PMC9112550, “Optimization of the antimicrobial peptide Bac7 by deep mutational scanning” (BMC Biology, 2022)
# System: Escherichia coli TOP10
# Assay: shrunken log2 fold change of peptide-encoding DNA abundance (4.5 h post-induction vs induction); higher = less antimicrobial activity (less host growth inhibition)
# Conditions: time post-induction: 4.5 h; library: site-saturation at positions 5, 18, 19, 20
# 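Also: peptides expressed intracellularly from a pBAD plasmid library in pooled LB shake-flask culture, induced with 0.3% L-arabinose, DNA abundance read by NGS, three biological replicates, DESeq2 with apeglm shrinkage.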
row,Sequence,shrunken log2 fold change
1,RRIRTRPPRLPRPRPRPTATPRP,0.286
2,RRIRFRPPRLPRPRPRPPFMPRP,0.0431
3,RRIRARPPRLPRPRPRPIWGPRP,0.302
4,RRIRHRPPRLPRPRPRPRDLPRP,-0.0495
5,RRIRMRPPRLPRPRPRPGTVPRP,-0.071
6,RRIRHRPPRLPRPRPRPYACPRP,-0.225
7,RRIRQRPPRLPRPRPRPKSTPRP,-0.228
8,RRIRQRPPRLPRPRPRPPGTPRP,0.617
9,RRIRVRPPRLPRPRPRPFMMPRP,0.097
10,RRIRGRPPRLPRPRPRPFWMPRP,0.103
11,RRIRSRPPRLPRPRPRPRSIPRP,-0.0602
12,RRIRDRPPRLPRPRPRPHSKPRP,-0.456
13,RRIRPRPPRLPRPRPRPKCIPRP,-1.04
14,RRIRQRPPRLPRPRPRPETCPRP,0.0408
15,RRIRARPPRLPRPRPRPYYRPRP,-0.183
16,RRIRYRPPRLPRPRPRPANLPRP,-1.19
17,RRIRWRPPRLPRPRPRPWLKPRP,0.0275
18,RRIRRRPPRLPRPRPRPHSDPRP,-0.0198
19,RRIRPRPPRLPRPRPRPPSFPRP,0.262
20,RRIRGRPPRLPRPRPRPIEDPRP,0.0783
21,RRIRPRPPRLPRPRPRPWNWPRP,0.3
22,RRIRWRPPRLPRPRPRPIELPRP,-0.0796
23,RRIRGRPPRLPRPRPRPVSDPRP,1.26
24,RRIRWRPPRLPRPRPRPLQVPRP,-0.125
25,RRIRRRPPRLPRPRPRPRVKPRP,0.699

row,Sequence,shrunken log2 fold change
1,RRIRLRPPRLPRPRPRPYAEPRP,-0.101
2,RRIRGRPPRLPRPRPRPEADPRP,1
3,RRIRCRPPRLPRPRPRPPIFPRP,-0.197
4,RRIRGRPPRLPRPRPRPPGLPRP,0.786
5,RRIRVRPPRLPRPRPRPLVKPRP,-0.0152
6,RRIRERPPRLPRPRPRPWMGPRP,0.299
7,RRIRGRPPRLPRPRPRPVGIPRP,0.414
8,RRIRGRPPRLPRPRPRPKDNPRP,0.578
9,RRIRIRPPRLPRPRPRPYTAPRP,-1.28
10,RRIRFRPPRLPRPRPRPPSIPRP,-0.0341
11,RRIRSRPPRLPRPRPRPNIYPRP,-0.519
12,RRIRWRPPRLPRPRPRPTDNPRP,-0.17
13,RRIRKRPPRLPRPRPRPSPMPRP,0.132
14,RRIRTRPPRLPRPRPRPVASPRP,0.0362
15,RRIRTRPPRLPRPRPRPQPQPRP,0.222
16,RRIRMRPPRLPRPRPRPSNEPRP,0.287
17,RRIRGRPPRLPRPRPRPTCIPRP,0.351
18,RRIRWRPPRLPRPRPRPLWEPRP,0.0357
19,RRIRKRPPRLPRPRPRPDPMPRP,0.86
20,RRIRLRPPRLPRPRPRPCPAPRP,-0.00808
21,RRIRWRPPRLPRPRPRPPSDPRP,0.184
22,RRIRNRPPRLPRPRPRPMQSPRP,-0.0939
23,RRIRARPPRLPRPRPRPQWIPRP,-0.0374
24,RRIRFRPPRLPRPRPRPRWWPRP,0.34
25,RRIRYRPPRLPRPRPRPPPEPRP,0.456

row,Sequence,shrunken log2 fold change
1,RRIRWRPPRLPRPRPRPMVCPRP,0.199
2,RRIRDRPPRLPRPRPRPKESPRP,0.277
3,RRIRQRPPRLPRPRPRPLRHPRP,0.323
4,RRIRCRPPRLPRPRPRPEADPRP,0.819
5,RRIRQRPPRLPRPRPRPQLKPRP,-0.0311
6,RRIRCRPPRLPRPRPRPMLPPRP,-0.00464
7,RRIRTRPPRLPRPRPRPDPVPRP,-0.216
8,RRIRFRPPRLPRPRPRPMGQPRP,-0.0471
9,RRIRPRPPRLPRPRPRPYRIPRP,-0.384
10,RRIRMRPPRLPRPRPRPQDAPRP,0.0668
11,RRIRVRPPRLPRPRPRPEHKPRP,-0.0815
12,RRIRGRPPRLPRPRPRPCRWPRP,0.611
13,RRIRSRPPRLPRPRPRPLIQPRP,-0.319
14,RRIRSRPPRLPRPRPRPSGKPRP,-0.202
15,RRIRSRPPRLPRPRPRPHKTPRP,-0.258
16,RRIRTRPPRLPRPRPRPRRLPRP,0.172
17,RRIRKRPPRLPRPRPRPTIGPRP,0.0992
18,RRIRGRPPRLPRPRPRPYYTPRP,1.19
19,RRIRNRPPRLPRPRPRPQYHPRP,-0.767
20,RRIRHRPPRLPRPRPRPCHKPRP,-0.0933
21,RRIRWRPPRLPRPRPRPCCKPRP,0.0725
22,RRIRVRPPRLPRPRPRPGMVPRP,0.0182
23,RRIRWRPPRLPRPRPRPEWRPRP,0.439
24,RRIRYRPPRLPRPRPRPLGMPRP,-0.807
25,RRIRYRPPRLPRPRPRPDWMPRP,0.0748

row,Sequence,shrunken log2 fold change
1,RRIRYRPPRLPRPRPRPQCFPRP,-0.00674
2,RRIRRRPPRLPRPRPRPGIPPRP,0.322
3,RRIRRRPPRLPRPRPRPACCPRP,0.714
4,RRIRKRPPRLPRPRPRPFVHPRP,-0.254
5,RRIRYRPPRLPRPRPRPASPPRP,-0.161
6,RRIRMRPPRLPRPRPRPFEAPRP,0.655
7,RRIRTRPPRLPRPRPRPACTPRP,0.212
8,RRIRMRPPRLPRPRPRPLCHPRP,0.061
9,RRIRMRPPRLPRPRPRPPRGPRP,1.17
10,RRIRDRPPRLPRPRPRPAVTPRP,-0.0403
11,RRIRRRPPRLPRPRPRPYTYPRP,0.0668
12,RRIRWRPPRLPRPRPRPIQAPRP,-0.0237
13,RRIRNRPPRLPRPRPRPYVSPRP,-0.0285
14,RRIRHRPPRLPRPRPRPLTLPRP,-0.193
15,RRIRERPPRLPRPRPRPCEVPRP,0.028
16,RRIRKRPPRLPRPRPRPPSWPRP,0.401
17,RRIRSRPPRLPRPRPRPRYVPRP,-0.597
18,RRIRSRPPRLPRPRPRPRVIPRP,0.017
19,RRIRRRPPRLPRPRPRPWREPRP,-0.0799
20,RRIRERPPRLPRPRPRPCQMPRP,-0.161
21,RRIRIRPPRLPRPRPRPKMDPRP,0.0209
22,RRIRERPPRLPRPRPRPEMWPRP,0.452
23,RRIRMRPPRLPRPRPRPWIHPRP,-0.0313
24,RRIRSRPPRLPRPRPRPGAWPRP,0.342
25,RRIRARPPRLPRPRPRPLCDPRP,2.32

row,Sequence,shrunken log2 fold change
1,RRIRIRPPRLPRPRPRPYCIPRP,-0.224
2,RRIRDRPPRLPRPRPRPMNNPRP,-0.424
3,RRIRHRPPRLPRPRPRPKWAPRP,0.279
4,RRIRIRPPRLPRPRPRPCLKPRP,-0.16
5,RRIRCRPPRLPRPRPRPGYQPRP,-0.06
6,RRIRMRPPRLPRPRPRPRGHPRP,1.33
7,RRIRWRPPRLPRPRPRPRPKPRP,0.697
8,RRIRLRPPRLPRPRPRPAQNPRP,0.57
9,RRIRCRPPRLPRPRPRPCNYPRP,-1.4
10,RRIRFRPPRLPRPRPRPAWMPRP,0.336
11,RRIRQRPPRLPRPRPRPPNKPRP,0.116
12,RRIRMRPPRLPRPRPRPHSFPRP,0.0932
13,RRIRSRPPRLPRPRPRPKYHPRP,-0.601
14,RRIRERPPRLPRPRPRPMQCPRP,-0.211
15,RRIRMRPPRLPRPRPRPAMQPRP,0.404
16,RRIRDRPPRLPRPRPRPFGMPRP,-0.0413
17,RRIRERPPRLPRPRPRPVVEPRP,0.118
18,RRIRERPPRLPRPRPRPAKGPRP,-0.321
19,RRIRQRPPRLPRPRPRPRGVPRP,-0.0152
20,RRIRGRPPRLPRPRPRPEHFPRP,0.00955
21,RRIRNRPPRLPRPRPRPGKVPRP,-0.123
22,RRIRTRPPRLPRPRPRPLFQPRP,-0.348
23,RRIRLRPPRLPRPRPRPRNRPRP,0.267
24,RRIRRRPPRLPRPRPRPVGTPRP,0.018
25,RRIRERPPRLPRPRPRPITVPRP,0.0995
